± gives the uncertainty stated by the source.
B1: Intersectin-1, residues 909 to 971; numbered along this chain, Q15811 (parent)
chain: QGEKVEGLQAQALYPWRAKKDNHLNFNKNDVITVLEQQDMWWFGEVQGQKGWFPKSYVKLISG
B2: Ventral anterior homeobox 1, residues 102 to 157; numbered along this chain, Q5SQQ9 (parent)
chain: RTRTSFTAEQLYRLEMEFQRCQYVVGRERTELARQLNLSETQVKVWFQNRRTKQKK

Variants of: B1
Assay: abundance fitness (aPCA) (normalised: wild type 0, dead -1); higher = more abundant; growth selection in yeast, the domain comes from the species named
Conditions: Homo sapiens

With QCEKVEGLQAQALYPWRAKKDNHLNFNKNDVITVLEQQDMWWFGEVQGQKGWFPKSYVKLISG [G2C] as the variant, how does the abundance fitness read?
The abundance fitness was -0.286 ± 0.16.

Which abundance fitness does the source give for QEEKVEGLQAQALYPWRAKKDNHLNFNKNDVITVLEQQDMWWFGEVQGQKGWFPKSYVKLISG [G2E] here?
Its abundance fitness is -0.001 ± 0.17.

With QDEKVEGLQAQALYPWRAKKDNHLNFNKNDVITVLEQQDMWWFGEVQGQKGWFPKSYVKLISG [G2D] as the variant, how does the abundance fitness read?
Its abundance fitness is -0.265 ± 0.086.

Which abundance fitness does the source give for QAEKVEGLQAQALYPWRAKKDNHLNFNKNDVITVLEQQDMWWFGEVQGQKGWFPKSYVKLISG [G2A] here?
Its abundance fitness is -0.028 ± 0.12.

For CGEKVEGLQAQALYPWRAKKDNHLNFNKNDVITVLEQQDMWWFGEVQGQKGWFPKSYVKLISG [Q1C], which abundance fitness is on record?
Its abundance fitness is -0.06 ± 0.19.

For VGEKVEGLQAQALYPWRAKKDNHLNFNKNDVITVLEQQDMWWFGEVQGQKGWFPKSYVKLISG [Q1V], which abundance fitness is on record?
The abundance fitness was 0.158 ± 0.4.

For MGEKVEGLQAQALYPWRAKKDNHLNFNKNDVITVLEQQDMWWFGEVQGQKGWFPKSYVKLISG [Q1M], which abundance fitness is on record?
Its abundance fitness is -0.208 ± 0.31.

For GGEKVEGLQAQALYPWRAKKDNHLNFNKNDVITVLEQQDMWWFGEVQGQKGWFPKSYVKLISG [Q1G], which abundance fitness is on record?
The abundance fitness was -0.083 ± 0.12.

For RGEKVEGLQAQALYPWRAKKDNHLNFNKNDVITVLEQQDMWWFGEVQGQKGWFPKSYVKLISG [Q1R], which abundance fitness is on record?
Its abundance fitness is -0.299 ± 0.13.

For LGEKVEGLQAQALYPWRAKKDNHLNFNKNDVITVLEQQDMWWFGEVQGQKGWFPKSYVKLISG [Q1L], which abundance fitness is on record?
Its abundance fitness is -0.164 ± 0.17.

Which abundance fitness does the source give for TGEKVEGLQAQALYPWRAKKDNHLNFNKNDVITVLEQQDMWWFGEVQGQKGWFPKSYVKLISG [Q1T] here?
The abundance fitness was -0.111 ± 0.28.

With EGEKVEGLQAQALYPWRAKKDNHLNFNKNDVITVLEQQDMWWFGEVQGQKGWFPKSYVKLISG [Q1E] as the variant, how does the abundance fitness read?
Its abundance fitness is -0.335 ± 0.31.

Which abundance fitness does the source give for WGEKVEGLQAQALYPWRAKKDNHLNFNKNDVITVLEQQDMWWFGEVQGQKGWFPKSYVKLISG [Q1W] here?
The abundance fitness was -0.34 ± 0.16.

With SGEKVEGLQAQALYPWRAKKDNHLNFNKNDVITVLEQQDMWWFGEVQGQKGWFPKSYVKLISG [Q1S] as the variant, how does the abundance fitness read?
Its abundance fitness is -0.334 ± 0.36.

With KGEKVEGLQAQALYPWRAKKDNHLNFNKNDVITVLEQQDMWWFGEVQGQKGWFPKSYVKLISG [Q1K] as the variant, how does the abundance fitness read?
Its abundance fitness is -0.496 ± 0.11.

Variants of: B2
Assay: as above
Conditions: Homo sapiens

Which abundance fitness does the source give for K55Q here?
The abundance fitness was 0.29 ± 0.21.

For K55W, which abundance fitness is on record?
Its abundance fitness is -0.105 ± 0.12.

Which abundance fitness does the source give for K55P here?
The abundance fitness was 0.061 ± 0.13.

With K55C as the variant, how does the abundance fitness read?
The abundance fitness was -0.091 ± 0.2.

With K55N as the variant, how does the abundance fitness read?
Its abundance fitness is 0.081 ± 0.18.

For K55Y, which abundance fitness is on record?
Its abundance fitness is -0.199 ± 0.23.

With K55E as the variant, how does the abundance fitness read?
The abundance fitness was 0.238 ± 0.15.

With K55V as the variant, how does the abundance fitness read?
Its abundance fitness is 0.119 ± 0.1.

For K55L, which abundance fitness is on record?
The abundance fitness was 0.128 ± 0.11.

Which abundance fitness does the source give for K55D here?
The abundance fitness was 0.305 ± 0.17.

Which abundance fitness does the source give for K55H here?
Its abundance fitness is -0.149 ± 0.26.

With K55G as the variant, how does the abundance fitness read?
Its abundance fitness is 0.043 ± 0.093.

Which abundance fitness does the source give for K55R here?
Its abundance fitness is -0.187 ± 0.1.

Which abundance fitness does the source give for K55M here?
Its abundance fitness is -0.288 ± 0.18.

For K55F, which abundance fitness is on record?
The abundance fitness was -0.229 ± 0.21.

Which abundance fitness does the source give for K55A here?
Its abundance fitness is 0.086 ± 0.1.

Which abundance fitness does the source give for K55I here?
Its abundance fitness is -0.238 ± 0.2.

For K55S, which abundance fitness is on record?
Its abundance fitness is -0.072 ± 0.12.

For R51I, which abundance fitness is on record?
Its abundance fitness is 0.068 ± 0.26.

With R51H as the variant, how does the abundance fitness read?
The abundance fitness was -0.038 ± 0.18.

For R51N, which abundance fitness is on record?
Its abundance fitness is -0.117 ± 0.35.

Which abundance fitness does the source give for R51Q here?
Its abundance fitness is 0.049 ± 0.24.

For R51C, which abundance fitness is on record?
Its abundance fitness is -0.08 ± 0.17.

For R51S, which abundance fitness is on record?
Its abundance fitness is -0.201 ± 0.13.

Which abundance fitness does the source give for R51V here?
The abundance fitness was -0.319 ± 0.12.

Which abundance fitness does the source give for R51A here?
Its abundance fitness is -0.325 ± 0.12.

With R51W as the variant, how does the abundance fitness read?
Its abundance fitness is -0.243 ± 0.14.

Which abundance fitness does the source give for R51D here?
Its abundance fitness is -0.14 ± 0.22.

Which abundance fitness does the source give for R51M here?
Its abundance fitness is -0.333 ± 0.25.

For R51G, which abundance fitness is on record?
Its abundance fitness is -0.16 ± 0.1.

Which abundance fitness does the source give for R51Y here?
The abundance fitness was -0.091 ± 0.21.

For R51E, which abundance fitness is on record?
The abundance fitness was -0.309 ± 0.19.

For R51K, which abundance fitness is on record?
Its abundance fitness is -0.365 ± 0.32.

Which abundance fitness does the source give for R51F here?
Its abundance fitness is -0.2 ± 0.25.

For T52N, which abundance fitness is on record?
Its abundance fitness is -0.037 ± 0.25.

For T52Q, which abundance fitness is on record?
The abundance fitness was -0.145 ± 0.15.

With T52E as the variant, how does the abundance fitness read?
Its abundance fitness is 0.139 ± 0.16.

With T52M as the variant, how does the abundance fitness read?
The abundance fitness was 0.194 ± 0.18.

For T52D, which abundance fitness is on record?
Its abundance fitness is 0.154 ± 0.19.

For T52I, which abundance fitness is on record?
Its abundance fitness is -0.358 ± 0.17.

For T52L, which abundance fitness is on record?
The abundance fitness was -0.141 ± 0.1.

For T52R, which abundance fitness is on record?
The abundance fitness was -0.249 ± 0.098.

With T52H as the variant, how does the abundance fitness read?
The abundance fitness was -0.279 ± 0.23.

For T52W, which abundance fitness is on record?
Its abundance fitness is -0.316 ± 0.14.

For T52A, which abundance fitness is on record?
Its abundance fitness is -0.11 ± 0.12.

For T52P, which abundance fitness is on record?
The abundance fitness was -0.558 ± 0.19.

For T52C, which abundance fitness is on record?
The abundance fitness was -0.165 ± 0.17.

For T52K, which abundance fitness is on record?
The abundance fitness was 0.091 ± 0.16.

For T52F, which abundance fitness is on record?
The abundance fitness was -0.285 ± 0.17.

For T52Y, which abundance fitness is on record?
The abundance fitness was -0.137 ± 0.3.

Which abundance fitness does the source give for T52V here?
The abundance fitness was -0.014 ± 0.1.

Which abundance fitness does the source give for T52G here?
Its abundance fitness is 0.137 ± 0.09.

Which abundance fitness does the source give for K56E here?
Its abundance fitness is 0.12 ± 0.33.

Which abundance fitness does the source give for K56W here?
Its abundance fitness is 0.078 ± 0.38.

For K56A, which abundance fitness is on record?
The abundance fitness was -0.291 ± 0.3.

With K56R as the variant, how does the abundance fitness read?
The abundance fitness was -0.127 ± 0.22.

For K56C, which abundance fitness is on record?
Its abundance fitness is 0.148 ± 0.37.

Which abundance fitness does the source give for K56H here?
Its abundance fitness is -0.159 ± 0.27.

Which abundance fitness does the source give for K56N here?
Its abundance fitness is 0.151 ± 0.34.

For K56S, which abundance fitness is on record?
The abundance fitness was 0.135 ± 0.14.

With K56G as the variant, how does the abundance fitness read?
The abundance fitness was 0.324 ± 0.18.

Which abundance fitness does the source give for K56Q here?
The abundance fitness was -0.167 ± 0.33.

Which abundance fitness does the source give for K56Y here?
The abundance fitness was -0.039 ± 0.19.

With K56L as the variant, how does the abundance fitness read?
The abundance fitness was -0.205 ± 0.24.

Which abundance fitness does the source give for K56M here?
The abundance fitness was -0.17 ± 0.27.

Which abundance fitness does the source give for K56V here?
Its abundance fitness is 0.005 ± 0.22.

Which abundance fitness does the source give for K56P here?
The abundance fitness was 0.143 ± 0.36.

With K56I as the variant, how does the abundance fitness read?
The abundance fitness was 0.003 ± 0.39.

Which abundance fitness does the source give for K53C here?
Its abundance fitness is 0.202 ± 0.18.

With K53D as the variant, how does the abundance fitness read?
Its abundance fitness is 0.209 ± 0.19.

Which abundance fitness does the source give for K53A here?
The abundance fitness was 0.044 ± 0.12.

For K53V, which abundance fitness is on record?
Its abundance fitness is 0.137 ± 0.12.

For K53L, which abundance fitness is on record?
The abundance fitness was 0.183 ± 0.13.

For K53E, which abundance fitness is on record?
The abundance fitness was 0.186 ± 0.16.

With K53Y as the variant, how does the abundance fitness read?
The abundance fitness was 0.292 ± 0.43.

Which abundance fitness does the source give for K53W here?
Its abundance fitness is -0.04 ± 0.14.

For K53M, which abundance fitness is on record?
The abundance fitness was -0.103 ± 0.19.

For K53S, which abundance fitness is on record?
Its abundance fitness is 0.161 ± 0.17.

Which abundance fitness does the source give for K53F here?
Its abundance fitness is 0.174 ± 0.26.

For K53G, which abundance fitness is on record?
Its abundance fitness is -0.037 ± 0.096.

Which abundance fitness does the source give for K53T here?
The abundance fitness was 0.197 ± 0.16.

Which abundance fitness does the source give for K53I here?
The abundance fitness was -0.02 ± 0.28.

Which abundance fitness does the source give for K53Q here?
Its abundance fitness is 0.115 ± 0.19.

For K53H, which abundance fitness is on record?
Its abundance fitness is -0.226 ± 0.32.

For K53R, which abundance fitness is on record?
Its abundance fitness is -0.088 ± 0.09.

Which abundance fitness does the source give for K53N here?
Its abundance fitness is 0.199 ± 0.33.

With Q54R as the variant, how does the abundance fitness read?
Its abundance fitness is -0.237 ± 0.084.

With Q54Y as the variant, how does the abundance fitness read?
The abundance fitness was -0.317 ± 0.39.

For Q54W, which abundance fitness is on record?
The abundance fitness was -0.187 ± 0.11.

Which abundance fitness does the source give for Q54S here?
The abundance fitness was -0.125 ± 0.1.

Which abundance fitness does the source give for Q54A here?
The abundance fitness was 0.018 ± 0.09.

Which abundance fitness does the source give for Q54E here?
The abundance fitness was 0.11 ± 0.12.

For Q54G, which abundance fitness is on record?
The abundance fitness was 0.005 ± 0.076.

With Q54P as the variant, how does the abundance fitness read?
The abundance fitness was 0.013 ± 0.12.

Which abundance fitness does the source give for Q54H here?
Its abundance fitness is -0.149 ± 0.18.

For Q54T, which abundance fitness is on record?
The abundance fitness was -0.332 ± 0.22.

Which abundance fitness does the source give for Q54K here?
Its abundance fitness is 0.144 ± 0.27.

With Q54V as the variant, how does the abundance fitness read?
The abundance fitness was -0.017 ± 0.088.

For Q54N, which abundance fitness is on record?
Its abundance fitness is -0.202 ± 0.3.

Which abundance fitness does the source give for Q54C here?
The abundance fitness was -0.252 ± 0.2.

With Q54L as the variant, how does the abundance fitness read?
The abundance fitness was -0.045 ± 0.088.

With Q54I as the variant, how does the abundance fitness read?
The abundance fitness was -0.191 ± 0.32.

Which abundance fitness does the source give for Q54F here?
Its abundance fitness is -0.284 ± 0.18.

Which abundance fitness does the source give for R50T here?
The abundance fitness was -0.392 ± 0.16.

Which abundance fitness does the source give for R50W here?
Its abundance fitness is -0.929 ± 0.2.

For R50S, which abundance fitness is on record?
The abundance fitness was -0.451 ± 0.12.

Which abundance fitness does the source give for R50V here?
Its abundance fitness is -0.943 ± 0.18.

With R50Y as the variant, how does the abundance fitness read?
The abundance fitness was -0.285 ± 0.27.

Reference: the Human Domainome abundance scans (Beltran et al. 2025)
